Patent US20240199746A1 (published 2024)

T1: Ax1 protein, extracellular domain (human, UniProt P30530 26-451)
T1 construct: extracellular domain; also called Axl; Ark
T1 sequence (looked up): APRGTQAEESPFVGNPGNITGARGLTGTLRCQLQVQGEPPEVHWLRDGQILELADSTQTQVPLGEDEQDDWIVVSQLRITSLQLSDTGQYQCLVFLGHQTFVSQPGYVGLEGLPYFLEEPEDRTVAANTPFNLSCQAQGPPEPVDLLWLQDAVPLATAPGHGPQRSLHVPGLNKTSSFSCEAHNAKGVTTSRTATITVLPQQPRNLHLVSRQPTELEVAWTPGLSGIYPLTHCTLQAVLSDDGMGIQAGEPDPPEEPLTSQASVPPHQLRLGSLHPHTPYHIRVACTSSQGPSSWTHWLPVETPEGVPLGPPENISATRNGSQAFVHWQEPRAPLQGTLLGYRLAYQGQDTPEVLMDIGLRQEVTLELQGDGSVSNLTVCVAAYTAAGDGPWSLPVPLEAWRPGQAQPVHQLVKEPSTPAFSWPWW

B1: HC-S103D (antibody, V domains shown)
VH: EVQLVQSGAEVKKPGATVKISCKVSGYSFTGHTMNWIRQPPGKGLEWIGLIKPSNGGTSYNQKFKGRVTISADKSISTAYLQWSSLKASDTAMYYCAHGHYEDYFAMDYWGQGTLVTVSS
VL: DIQMTQSPSSLSASVGDRVTITCKASQDVSSAVAWYQQKPGQAPRLLIYWASTRHTGVPSRFSGSGSGTEFTLTISSLQPDDFATYYCQEHFSTPLTFGQGTKVEIK
notes: CPE single point mutant
B2: LC-F092C (antibody, V domains shown)
VH: EVQLVQSGAEVKKPGATVKISCKVSGYSFTGHTMNWIRQPPGKGLEWIGLIKPSNGGTSYNQKFKGRVTISADKSISTAYLQWSSLKASDTAMYYCAHGHYESYFAMDYWGQGTLVTVSS
VL: DIQMTQSPSSLSASVGDRVTITCKASQDVSSAVAWYQQKPGQAPRLLIYWASTRHTGVPSRFSGSGSGTEFTLTISSLQPDDFATYYCQEHCSTPLTFGQGTKVEIK
notes: CPE single point mutant
B3: LC-A032M (antibody, V domains shown)
VH: EVQLVQSGAEVKKPGATVKISCKVSGYSFTGHTMNWIRQPPGKGLEWIGLIKPSNGGTSYNQKFKGRVTISADKSISTAYLQWSSLKASDTAMYYCAHGHYESYFAMDYWGQGTLVTVSS
VL: DIQMTQSPSSLSASVGDRVTITCKASQDVSSMVAWYQQKPGQAPRLLIYWASTRHTGVPSRFSGSGSGTEFTLTISSLQPDDFATYYCQEHFSTPLTFGQGTKVEIK
notes: CPE single point mutant
B4: HC-Y104P (antibody, V domains shown)
VH: EVQLVQSGAEVKKPGATVKISCKVSGYSFTGHTMNWIRQPPGKGLEWIGLIKPSNGGTSYNQKFKGRVTISADKSISTAYLQWSSLKASDTAMYYCAHGHYESPFAMDYWGQGTLVTVSS
VL: DIQMTQSPSSLSASVGDRVTITCKASQDVSSAVAWYQQKPGQAPRLLIYWASTRHTGVPSRFSGSGSGTEFTLTISSLQPDDFATYYCQEHFSTPLTFGQGTKVEIK
notes: CPE single point mutant
B5: HC-S103Q (antibody, V domains shown)
VH: EVQLVQSGAEVKKPGATVKISCKVSGYSFTGHTMNWIRQPPGKGLEWIGLIKPSNGGTSYNQKFKGRVTISADKSISTAYLQWSSLKASDTAMYYCAHGHYEQYFAMDYWGQGTLVTVSS
VL: DIQMTQSPSSLSASVGDRVTITCKASQDVSSAVAWYQQKPGQAPRLLIYWASTRHTGVPSRFSGSGSGTEFTLTISSLQPDDFATYYCQEHFSTPLTFGQGTKVEIK
notes: CPE single point mutant
B6: HC-Y101N (antibody, V domains shown)
VH: EVQLVQSGAEVKKPGATVKISCKVSGYSFTGHTMNWIRQPPGKGLEWIGLIKPSNGGTSYNQKFKGRVTISADKSISTAYLQWSSLKASDTAMYYCAHGHNESYFAMDYWGQGTLVTVSS
VL: DIQMTQSPSSLSASVGDRVTITCKASQDVSSAVAWYQQKPGQAPRLLIYWASTRHTGVPSRFSGSGSGTEFTLTISSLQPDDFATYYCQEHFSTPLTFGQGTKVEIK
notes: CPE single point mutant
B7: LC-A034D (antibody, V domains shown)
VH: EVQLVQSGAEVKKPGATVKISCKVSGYSFTGHTMNWIRQPPGKGLEWIGLIKPSNGGTSYNQKFKGRVTISADKSISTAYLQWSSLKASDTAMYYCAHGHYESYFAMDYWGQGTLVTVSS
VL: DIQMTQSPSSLSASVGDRVTITCKASQDVSSAVDWYQQKPGQAPRLLIYWASTRHTGVPSRFSGSGSGTEFTLTISSLQPDDFATYYCQEHFSTPLTFGQGTKVEIK
notes: CPE single point mutant
B8: LC-A051N (antibody, V domains shown)
VH: EVQLVQSGAEVKKPGATVKISCKVSGYSFTGHTMNWIRQPPGKGLEWIGLIKPSNGGTSYNQKFKGRVTISADKSISTAYLQWSSLKASDTAMYYCAHGHYESYFAMDYWGQGTLVTVSS
VL: DIQMTQSPSSLSASVGDRVTITCKASQDVSSAVAWYQQKPGQAPRLLIYWNSTRHTGVPSRFSGSGSGTEFTLTISSLQPDDFATYYCQEHFSTPLTFGQGTKVEIK
notes: CPE single point mutant
B9: LC-A032L (antibody, V domains shown)
VH: EVQLVQSGAEVKKPGATVKISCKVSGYSFTGHTMNWIRQPPGKGLEWIGLIKPSNGGTSYNQKFKGRVTISADKSISTAYLQWSSLKASDTAMYYCAHGHYESYFAMDYWGQGTLVTVSS
VL: DIQMTQSPSSLSASVGDRVTITCKASQDVSSLVAWYQQKPGQAPRLLIYWASTRHTGVPSRFSGSGSGTEFTLTISSLQPDDFATYYCQEHFSTPLTFGQGTKVEIK
notes: CPE single point mutant
B10: HC-T033I (antibody, V domains shown)
VH: EVQLVQSGAEVKKPGATVKISCKVSGYSFTGHIMNWIRQPPGKGLEWIGLIKPSNGGTSYNQKFKGRVTISADKSISTAYLQWSSLKASDTAMYYCAHGHYESYFAMDYWGQGTLVTVSS
VL: DIQMTQSPSSLSASVGDRVTITCKASQDVSSAVAWYQQKPGQAPRLLIYWASTRHTGVPSRFSGSGSGTEFTLTISSLQPDDFATYYCQEHFSTPLTFGQGTKVEIK
notes: CPE single point mutant
B11: LC-A034N (antibody, V domains shown)
VH: EVQLVQSGAEVKKPGATVKISCKVSGYSFTGHTMNWIRQPPGKGLEWIGLIKPSNGGTSYNQKFKGRVTISADKSISTAYLQWSSLKASDTAMYYCAHGHYESYFAMDYWGQGTLVTVSS
VL: DIQMTQSPSSLSASVGDRVTITCKASQDVSSAVNWYQQKPGQAPRLLIYWASTRHTGVPSRFSGSGSGTEFTLTISSLQPDDFATYYCQEHFSTPLTFGQGTKVEIK
notes: CPE single point mutant
B12: HC-T030A (antibody, V domains shown)
VH: EVQLVQSGAEVKKPGATVKISCKVSGYSFAGHTMNWIRQPPGKGLEWIGLIKPSNGGTSYNQKFKGRVTISADKSISTAYLQWSSLKASDTAMYYCAHGHYESYFAMDYWGQGTLVTVSS
VL: DIQMTQSPSSLSASVGDRVTITCKASQDVSSAVAWYQQKPGQAPRLLIYWASTRHTGVPSRFSGSGSGTEFTLTISSLQPDDFATYYCQEHFSTPLTFGQGTKVEIK
notes: CPE single point mutant
B13: LC-A051P (antibody, V domains shown)
VH: EVQLVQSGAEVKKPGATVKISCKVSGYSFTGHTMNWIRQPPGKGLEWIGLIKPSNGGTSYNQKFKGRVTISADKSISTAYLQWSSLKASDTAMYYCAHGHYESYFAMDYWGQGTLVTVSS
VL: DIQMTQSPSSLSASVGDRVTITCKASQDVSSAVAWYQQKPGQAPRLLIYWPSTRHTGVPSRFSGSGSGTEFTLTISSLQPDDFATYYCQEHFSTPLTFGQGTKVEIK
notes: CPE single point mutant
B14: LC-A034Q (antibody, V domains shown)
VH: EVQLVQSGAEVKKPGATVKISCKVSGYSFTGHTMNWIRQPPGKGLEWIGLIKPSNGGTSYNQKFKGRVTISADKSISTAYLQWSSLKASDTAMYYCAHGHYESYFAMDYWGQGTLVTVSS
VL: DIQMTQSPSSLSASVGDRVTITCKASQDVSSAVQWYQQKPGQAPRLLIYWASTRHTGVPSRFSGSGSGTEFTLTISSLQPDDFATYYCQEHFSTPLTFGQGTKVEIK
notes: CPE single point mutant
B15: LC-A051I (antibody, V domains shown)
VH: EVQLVQSGAEVKKPGATVKISCKVSGYSFTGHTMNWIRQPPGKGLEWIGLIKPSNGGTSYNQKFKGRVTISADKSISTAYLQWSSLKASDTAMYYCAHGHYESYFAMDYWGQGTLVTVSS
VL: DIQMTQSPSSLSASVGDRVTITCKASQDVSSAVAWYQQKPGQAPRLLIYWISTRHTGVPSRFSGSGSGTEFTLTISSLQPDDFATYYCQEHFSTPLTFGQGTKVEIK
notes: CPE single point mutant
B16: LC-F092E (antibody, V domains shown)
VH: EVQLVQSGAEVKKPGATVKISCKVSGYSFTGHTMNWIRQPPGKGLEWIGLIKPSNGGTSYNQKFKGRVTISADKSISTAYLQWSSLKASDTAMYYCAHGHYESYFAMDYWGQGTLVTVSS
VL: DIQMTQSPSSLSASVGDRVTITCKASQDVSSAVAWYQQKPGQAPRLLIYWASTRHTGVPSRFSGSGSGTEFTLTISSLQPDDFATYYCQEHESTPLTFGQGTKVEIK
notes: CPE single point mutant
B17: LC-F092D (antibody, V domains shown)
VH: EVQLVQSGAEVKKPGATVKISCKVSGYSFTGHTMNWIRQPPGKGLEWIGLIKPSNGGTSYNQKFKGRVTISADKSISTAYLQWSSLKASDTAMYYCAHGHYESYFAMDYWGQGTLVTVSS
VL: DIQMTQSPSSLSASVGDRVTITCKASQDVSSAVAWYQQKPGQAPRLLIYWASTRHTGVPSRFSGSGSGTEFTLTISSLQPDDFATYYCQEHDSTPLTFGQGTKVEIK
notes: CPE single point mutant

Legend:
[1] = molecular target: T1, Ax1 protein, extracellular domain; experiment: ELISA, mutant diluted 1:3
Description: (§1) The DNA encoding the wild-type antibody was evolved to generate a mutant antibody library using Comprehensive Positional Evolution (CPE), which each position in the template antibody is randomized one at a time. Each mutant antibody in the library has only one single point mutation. The mutant antibodies in the library were generated by simultaneously screening for selective binding affinity to Ax1 at pH 6.0 over pH 7.4 by ELISA. Two mutant antibody dilutions were used: 1:3 and 1:9 dilutions.

[2] = molecular target: T1, Ax1 protein, extracellular domain; experiment: ELISA, mutant diluted 1:9
Description: as §1

| Binder | Affinity ELISA CPE mutant ratio (1:3, pH 6.0/7.4) [1] | Affinity ELISA CPE mutant ratio (1:9, pH 6.0/7.4) [2] |
| --- | --- | --- |
| B1 | 4.24 | 2.23 |
| B2 | 3.86 | 4.58 |
| B3 | 4.76 | 2.92 |
| B4 | 2.54 | 2.42 |
| B5 | 0.912 | 2.26 |
| B6 | 2.17 | 2.91 |
| B7 | 3 | 2.6 |
| B8 | 1.41 | 2.2 |
| B9 | 1.9 | 2.27 |
| B10 | 1.59 | 1 |
| B11 | 2.63 | 2.4 |
| B12 | 1.29 | 1.76 |
| B13 | 1.92 | 1.57 |
| B14 | 2 | 1.41 |
| B15 | 2.24 | 2.14 |
| B16 | 1.76 | 2 |
| B17 | 2.97 | 2.94 |
